From paper PMC12594388, “Enzymatic properties of a L-asparaginase without secondary glutaminase activity from Streptomyces scabrisporus” (PLOS One, 2025)

B1: R. etli L-asparaginase (Rhizobium etli CFN 42) (protein)
chain: MTPSEDFVVTDRGGIVENSHRVHAAVVDAKGRLLYALGNPTRMTLARSAAKPAQALAILETEGVAGYGFDDADIALMCASHSSEDRHIARTRAMLSKIKAEEADLRCGGHPSLSEMVNRSWIKQDFIPTAVCSNCSGKHVGMLAGARAIGAGTDGYHLPDHPMQGRVKRTVAELCDLDAGDVEWGTDGCNLPTPAFPLDRLGRIYAKLASAADGSDAGEGQSTRCAALAHIFRAMARHPEMVAGEGRYCTMLMRAFDGALVGKLGADASYAIGVRASDATRQLGTDGALGISVKIEDGNLEMLYAVVTELLERLGIGSPDVRSQLASFHHPQRVNTMGVTTGGVSFPFKLRGSKSNVDDPRLAAVAR
notes: pET28a (NcoI/EcoRI; pET28a-AnsRe), E. coli BL21(DE3), HisTrap purified, 38 kDa
B2: S. scabrisporus L-asparaginase (Embleya scabrispora) (protein)
chain: MRPEDTVPHESTTRYAELAEVVRSGFVESRHFGSLVALAPDGRPALELGVPNEPVVPRSSAKPFQALACLRAGAPLSGAHVAIAAGSHTGQDFHVDAVEDILTRSGLTFDALGCPPSRPEDEDTYQEMIARGEENTRERMNCSGKHAAMLAACVASGWPTEGYLDPGHPLQVLVREGIEELAGESVAHTAVDGCGAPVFAMTLTGLARGVRALATATTGPERVVAKAMREHPAYVGGDGQANTEVMRLLPGVLVKGGAEGVFVAATTAGHAVAVKVIDGSPRATTALALAALHRLGVDVSAASEWTTVPVLGGGLPVGEVRVTSHLG
notes: codon-optimised gene in pET28a(+) (NdeI/EcoRI; pET28a-AnsSs), E. coli BL21(DE3), HisTrap purified, 34 kDa

Columns and labels:
[1] = substrate: NC(=O)C[C@H](N)C(=O)O; assay: Nessler ammonium assay, Michaelis-Menten fit; format: biochemical, Rhizobium etli; settings: physiological pH (printed as pH 7 and as phosphate pH 7.4), 37 °C
[2] = substrate: NC(=O)C[C@H](N)C(=O)O; assay: Nessler ammonium assay, Michaelis-Menten fit; format: biochemical, Embleya scabrispora; settings: pH 10 (optimum), 37 °C, 0.5-20 mM asparagine
Excerpt: Nessler ammonium assay, Michaelis-Menten fit on S. scabrisporus L-asparaginase

Row | Protein | Km [1] [mM] | kcat [1] [s⁻¹] | Km [2] [mM] | kcat [2] [s⁻¹]
1 | B1 | 15.9 ± 4.7 | 140.3 ± 7 | – | –
2 | B2 | – | – | 7.361 ± 1.78 | 40.8 ± 2
